# Assay results as given in US20210388087A1 (Chugai, published 2021).
# Positions count from the first letter of the chain named.
# B1: GLS3000 S26E (antibody, name in Kabat numbering, V domains shown)
# VH: QVQLVESGGGVVQPGRSLRLSCAASGFTFSNAWMHWVRQAPGKGLEWVAQIKAKSNNYATYYAESVKGRFTISRDDSKNSLYLQMNSLKTEDTAVYYCRYVHYGAYYGVDAWGQGTTVTVSS
# VL: DIVMTQSPLSLPVTPGEPASISCRSEQSLVHSNRNTYLHWYQQKPGQAPRLLIYKVSNRFSGVPDRFSGSGSGTDFTLKISRVEAEDVGVYYCGQGTQVPYTFGQGTKLEIK
# notes: one-arm IgG as m2
# B2: GLS3000 S52P (antibody, name in Kabat numbering, V domains shown)
# VH: B1 VH
# VL: B1 VL with E26S, S57P
# notes: one-arm IgG as m2
# B3: GLS3000 S56F (antibody, name in Kabat numbering, V domains shown)
# VH: B1 VH
# VL: B1 VL with E26S, S61F
# notes: one-arm IgG as m2
# B4: GLS3000 S52D (antibody, name in Kabat numbering, V domains shown)
# VH: B1 VH
# VL: B1 VL with E26S, S57D
# notes: one-arm IgG as m2
# B5: GLS3000 S27eY (antibody, name in Kabat numbering, V domains shown)
# VH: B1 VH
# VL: B1 VL with E26S, S32Y
# notes: one-arm IgG as m2
# B6: GLS3000 S52Y (antibody, name in Kabat numbering, V domains shown)
# VH: B1 VH
# VL: B1 VL with E26S, S57Y
# notes: one-arm IgG as m2
# B7: GLS3000 S27eE (antibody, name in Kabat numbering, V domains shown)
# VH: B1 VH
# VL: B1 VL with E26S, S32E
# notes: one-arm IgG as m2
# B8: GLS3000 S27eG (antibody, name in Kabat numbering, V domains shown)
# VH: B1 VH
# VL: B1 VL with E26S, S32G
# notes: one-arm IgG as m2
# B9: GLS3000 S27aI (antibody, name in Kabat numbering, V domains shown)
# VH: B1 VH
# VL: B1 VL with E26S, S28I
# notes: one-arm IgG as m2
# B10: GLS3000 S27eW (antibody, name in Kabat numbering, V domains shown)
# VH: B1 VH
# VL: B1 VL with E26S, S32W
# notes: one-arm IgG as m2
# B11: GLS3000 S27eD (antibody, name in Kabat numbering, V domains shown)
# VH: B1 VH
# VL: B1 VL with E26S, S32D
# notes: one-arm IgG as m2
# B12: GLS3000 S56D (antibody, name in Kabat numbering, V domains shown)
# VH: B1 VH
# VL: B1 VL with E26S, S61D
# notes: one-arm IgG as m2
# B13: GLS3000 S56G (antibody, name in Kabat numbering, V domains shown)
# VH: B1 VH
# VL: B1 VL with E26S, S61G
# notes: one-arm IgG as m2
# B14: GLS3000 S56L (antibody, name in Kabat numbering, V domains shown)
# VH: B1 VH
# VL: B1 VL with E26S, S61L
# notes: one-arm IgG as m2
# B15: GLS3000 S27eN (antibody, name in Kabat numbering, V domains shown)
# VH: B1 VH
# VL: B1 VL with E26S, S32N
# notes: one-arm IgG as m2
# B16: GLS3000 S56M (antibody, name in Kabat numbering, V domains shown)
# VH: B1 VH
# VL: B1 VL with E26S, S61M
# notes: one-arm IgG as m2
# B17: GLS3000 S27eI (antibody, name in Kabat numbering, V domains shown)
# VH: B1 VH
# VL: B1 VL with E26S, S32I
# notes: one-arm IgG as m2
# B18: GLS3000 S27aN (antibody, name in Kabat numbering, V domains shown)
# VH: B1 VH
# VL: B1 VL with E26S, S28N
# notes: one-arm IgG as m2
# B19: GLS3000 S27eM (antibody, name in Kabat numbering, V domains shown)
# VH: B1 VH
# VL: B1 VL with E26S, S32M
# notes: one-arm IgG as m2
# B20: GLS3000 S27aP (antibody, name in Kabat numbering, V domains shown)
# VH: B1 VH
# VL: B1 VL with E26S, S28P
# notes: one-arm IgG as m2
# B21: GLS3000 S27eA (antibody, name in Kabat numbering, V domains shown)
# VH: B1 VH
# VL: B1 VL with E26S, S32A
# notes: one-arm IgG as m2
# B22: GLS3000 S27eV (antibody, name in Kabat numbering, V domains shown)
# VH: B1 VH
# VL: B1 VL with E26S, S32V
# notes: one-arm IgG as m2
# B23: GLS3000 S27eH (antibody, name in Kabat numbering, V domains shown)
# VH: B1 VH
# VL: B1 VL with E26S, S32H
# notes: one-arm IgG as m2
# B24: GLS3000 S56E (antibody, name in Kabat numbering, V domains shown)
# VH: B1 VH
# VL: B1 VL with E26S, S61E
# notes: one-arm IgG as m2
# B25: GLS3000 S27eL (antibody, name in Kabat numbering, V domains shown)
# VH: B1 VH
# VL: B1 VL with E26S, S32L
# notes: one-arm IgG as m2
# B26: GLS3000 S52A (antibody, name in Kabat numbering, V domains shown)
# VH: B1 VH
# VL: B1 VL with E26S, S57A
# notes: one-arm IgG as m2
# B27: GLS3000 S56I (antibody, name in Kabat numbering, V domains shown)
# VH: B1 VH
# VL: B1 VL with E26S, S61I
# notes: one-arm IgG as m2
# B28: GLS3000 S56K (antibody, name in Kabat numbering, V domains shown)
# VH: B1 VH
# VL: B1 VL with E26S, S61K
# notes: one-arm IgG as m2
# B29: GLS3000 S27eP (antibody, name in Kabat numbering, V domains shown)
# VH: B1 VH
# VL: B1 VL with E26S, S32P
# notes: one-arm IgG as m2
# B30: GLS3000 S27eF (antibody, name in Kabat numbering, V domains shown)
# VH: B1 VH
# VL: B1 VL with E26S, S32F
# notes: one-arm IgG as m2
# B31: GLS3000 S27eK (antibody, name in Kabat numbering, V domains shown)
# VH: B1 VH
# VL: B1 VL with E26S, S32K
# notes: one-arm IgG as m2
# B32: GLS3000 S27aE (antibody, name in Kabat numbering, V domains shown)
# VH: B1 VH
# VL: B1 VL with E26S, S28E
# notes: one-arm IgG as m2
# B33: GLS3000 S56N (antibody, name in Kabat numbering, V domains shown)
# VH: B1 VH
# VL: B1 VL with E26S, S61N
# notes: one-arm IgG as m2
# B34: GLS3000 S27eR (antibody, name in Kabat numbering, V domains shown)
# VH: B1 VH
# VL: B1 VL with E26S, S32R
# notes: one-arm IgG as m2
# B35: GLS3000 S56A (antibody, name in Kabat numbering, V domains shown)
# VH: B1 VH
# VL: B1 VL with E26S, S61A
# notes: one-arm IgG as m2
# B36: GLS3000 S27aY (antibody, name in Kabat numbering, V domains shown)
# VH: B1 VH
# VL: B1 VL with E26S, S28Y
# notes: one-arm IgG as m2
# B37: GLS3000 S56H (antibody, name in Kabat numbering, V domains shown)
# VH: B1 VH
# VL: B1 VL with E26S, S61H
# notes: one-arm IgG as m2
# B38: GLS3000 S27eT (antibody, name in Kabat numbering, V domains shown)
# VH: B1 VH
# VL: B1 VL with E26S, S32T
# notes: one-arm IgG as m2
# B39: GLS3000 S26P (antibody, name in Kabat numbering, V domains shown)
# VH: B1 VH
# VL: B1 VL with E26P
# notes: one-arm IgG as m2
# B40: GLS3000 S27aD (antibody, name in Kabat numbering, V domains shown)
# VH: B1 VH
# VL: B1 VL with E26S, S28D
# notes: one-arm IgG as m2
# B41: GLS3000 S52Q (antibody, name in Kabat numbering, V domains shown)
# VH: B1 VH
# VL: B1 VL with E26S, S57Q
# notes: one-arm IgG as m2
# B42: GLS3000 S27eQ (antibody, name in Kabat numbering, V domains shown)
# VH: B1 VH
# VL: B1 VL with E26S, S32Q
# notes: one-arm IgG as m2
# B43: GLS3000 S27aG (antibody, name in Kabat numbering, V domains shown)
# VH: B1 VH
# VL: B1 VL with E26S, S28G
# notes: one-arm IgG as m2
# Biological target: T1, CD3 epsilon homodimer protein (UniProt P07766 23-126)
# T1 construct: also called CD3 (CD3 epsilon)
# Assay: SPR Biacore T200, CD3e homodimer on chip, vs unaltered GLS3000 antibody
# T1 sequence (P07766 23-126): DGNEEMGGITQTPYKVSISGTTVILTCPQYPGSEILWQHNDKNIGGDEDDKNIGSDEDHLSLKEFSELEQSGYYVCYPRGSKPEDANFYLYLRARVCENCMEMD
row,Binder,ratio of amounts bound (Z=Y/X)
1,B1,0.74
2,B2,0.33
3,B3,1.32
4,B4,0.63
5,B5,1.2
6,B6,1.12
7,B7,0.76
8,B8,1.04
9,B9,1
10,B10,1.55
11,B11,0.69
12,B12,0.77
13,B13,0.92
14,B14,1.02
15,B15,1.16
16,B16,1.05
17,B17,1.07
18,B18,1.1
19,B19,1.23
20,B20,0.99
21,B21,1.03
22,B22,1.08

row,Binder,ratio of amounts bound (Z=Y/X)
1,B23,1.23
2,B24,0.71
3,B25,1.17
4,B26,0.93
5,B27,0.99
6,B28,1.46
7,B29,1.26
8,B30,1.32
9,B31,1.59
10,B32,0.81
11,B33,0.92
12,B34,1.58
13,B35,1.16
14,B36,1.1
15,B37,1.05
16,B38,0.97
17,B39,0.78
18,B40,0.79
19,B41,1.05
20,B42,1.1
21,B43,1.03
